Results from patent US20200308270A1 (Zymeworks, published 2020).
Changes are numbered by the printed parent chain.

B1: H3 wild-type lambda Mab (antibody, human IgG1, lambda)
heavy: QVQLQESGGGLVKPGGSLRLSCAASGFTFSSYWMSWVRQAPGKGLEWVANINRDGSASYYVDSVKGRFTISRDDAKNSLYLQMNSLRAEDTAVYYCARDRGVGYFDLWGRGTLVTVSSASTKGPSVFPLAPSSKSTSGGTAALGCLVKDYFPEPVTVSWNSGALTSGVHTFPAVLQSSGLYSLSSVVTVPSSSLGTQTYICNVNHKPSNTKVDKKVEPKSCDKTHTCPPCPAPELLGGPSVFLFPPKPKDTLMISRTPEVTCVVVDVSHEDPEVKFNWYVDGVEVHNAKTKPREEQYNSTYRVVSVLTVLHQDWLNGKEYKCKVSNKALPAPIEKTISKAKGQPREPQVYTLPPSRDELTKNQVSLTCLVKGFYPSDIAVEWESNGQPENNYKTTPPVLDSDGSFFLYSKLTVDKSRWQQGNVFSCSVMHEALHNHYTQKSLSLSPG
light: QSALTQPASVSGSPGQSITISCTGTSSDVGGYNFVSWYQQHPGKAPKLMIYDVSDRPSGVSDRFSGSKSGNTASLIISGLQADDEADYYCSSYGSSSTHVIFGGGTKVTVLGQPKAAPSVTLFPPSSEELQANKATLVCLISDFYPGAVTVAWKADSSPVKAGVETTTPSKQSNNKYAASSYLSLTPEQWKSHRSYSCQVTHEGSTVEKTVAPTECS
notes: IgG1 Mab format; also called WT
B2: EP6b_B01 Vlambda-Ckappa chimeric Fab (Fab, V domains shown)
VH: QLQLQESGPGLVKPSETLSLTCTVSGASISANSYYGVWVRQSPGKGLEWVGSIAYRGNSNSGSTYYNPSLKSRATVSVDSSKNQVSLRLTSVTAADTALYYCARRQLLDDGTGYQWAAFDVWGQGTMVTVSS
VL: QSVLTQPPSVSEAPRQTVTISCSGNSSNIGRYPVNWYQQLPGKAPKLLIYSDNLRFSGVPDRFSGSKSGTTASLAIRDLLSEDEADYYCSTWDDTLEGWVFGGGTKVTVLR
notes: Parent chimeric Fab without stabilizing substitutions; also called chimera; VL-CK chimeric Fab
B3: EP6b_B01 wild-type lambda Fab (Fab, V domains shown)
VH: B2 VH
VL: B2 VL with R111G
notes: Truncated heavy chain (VH-CH1-upper IgG1 hinge, no His tag) and wild-type lambda light chain; also called WT
B4: EP6b_B01 designed Vlambda-Ckappa chimeric Fab, design 34 (E83I_D85T_T105E_V106I) (Fab, name in Kabat numbering, V domains shown)
VH: B2 VH
VL: B2 VL with E84I, D86T, T108E, V109I
B5: EP6b_B01 designed Vlambda-Ckappa chimeric Fab, design 29 (E83V_D85T_T105E_V106I) (Fab, name in Kabat numbering, V domains shown)
VH: B2 VH
VL: B2 VL with E84V, D86T, T108E, V109I
B6: EP6b_B01 designed Vlambda-Ckappa chimeric Fab, design 37 (E83A_D85T) (Fab, name in Kabat numbering, V domains shown)
VH: B2 VH
VL: B2 VL with E84A, D86T
B7: EP6b_B01 designed Vlambda-Ckappa chimeric Fab, design 26 (E83V_D85T) (Fab, name in Kabat numbering, V domains shown)
VH: B2 VH
VL: B2 VL with E84V, D86T
B8: EP6b_B01 designed Vlambda-Ckappa chimeric Fab, design 18 (E83F_D85T_T105E) (Fab, name in Kabat numbering, V domains shown)
VH: B2 VH
VL: B2 VL with E84F, D86T, T108E
B9: EP6b_B01 designed Vlambda-Ckappa chimeric Fab, design 32 (E83I_D85T) (Fab, name in Kabat numbering, V domains shown)
VH: B2 VH
VL: B2 VL with E84I, D86T
B10: H3 designed Vlambda-Ckappa chimeric Mab, design 37 (E83A_D85T) (antibody, human IgG1, kappa, name in Kabat numbering)
heavy: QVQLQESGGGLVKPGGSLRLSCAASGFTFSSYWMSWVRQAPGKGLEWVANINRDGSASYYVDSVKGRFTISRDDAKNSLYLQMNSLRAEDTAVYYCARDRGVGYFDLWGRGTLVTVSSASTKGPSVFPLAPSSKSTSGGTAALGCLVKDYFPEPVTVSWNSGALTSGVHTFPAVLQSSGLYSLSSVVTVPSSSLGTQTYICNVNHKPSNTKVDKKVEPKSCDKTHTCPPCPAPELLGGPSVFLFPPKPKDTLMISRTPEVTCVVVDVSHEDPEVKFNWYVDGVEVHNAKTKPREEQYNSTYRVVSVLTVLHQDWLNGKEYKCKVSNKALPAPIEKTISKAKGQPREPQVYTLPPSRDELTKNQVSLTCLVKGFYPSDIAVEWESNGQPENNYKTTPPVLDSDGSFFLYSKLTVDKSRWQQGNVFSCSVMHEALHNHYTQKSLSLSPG
light: QSALTQPASVSGSPGQSITISCTGTSSDVGGYNFVSWYQQHPGKAPKLMIYDVSDRPSGVSDRFSGSKSGNTASLIISGLQADDAATYYCSSYGSSSTHVIFGGGTKVTVLRTVAAPSVFIFPPSDEQLKSGTASVVCLLNNFYPREAKVQWKVDNALQSGNSQESVTEQDSKDSTYSLSSTLTLSKADYEKHKVYACEVTHQGLSSPVTKSFNRGEC
notes: IgG1 Mab format
B11: H3 designed Vlambda-Ckappa chimeric Mab, design 26 (E83V_D85T) (antibody, human IgG1, kappa, name in Kabat numbering)
heavy: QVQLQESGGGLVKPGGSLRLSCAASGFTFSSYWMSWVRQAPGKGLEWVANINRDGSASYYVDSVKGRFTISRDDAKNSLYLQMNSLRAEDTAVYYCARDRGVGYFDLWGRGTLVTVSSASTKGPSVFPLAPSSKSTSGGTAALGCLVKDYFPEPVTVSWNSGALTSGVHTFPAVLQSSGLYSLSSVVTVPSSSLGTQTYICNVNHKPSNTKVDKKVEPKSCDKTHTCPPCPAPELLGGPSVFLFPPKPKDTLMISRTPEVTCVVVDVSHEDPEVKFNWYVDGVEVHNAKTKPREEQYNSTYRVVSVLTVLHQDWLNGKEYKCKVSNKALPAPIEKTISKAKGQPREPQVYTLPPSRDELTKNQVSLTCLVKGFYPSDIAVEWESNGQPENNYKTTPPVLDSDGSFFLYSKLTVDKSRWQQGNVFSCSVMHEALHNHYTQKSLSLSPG
light: B10 light with A85V
notes: IgG1 Mab format
B12: H3 Vlambda-Ckappa chimeric Mab (antibody, human IgG1, kappa)
heavy: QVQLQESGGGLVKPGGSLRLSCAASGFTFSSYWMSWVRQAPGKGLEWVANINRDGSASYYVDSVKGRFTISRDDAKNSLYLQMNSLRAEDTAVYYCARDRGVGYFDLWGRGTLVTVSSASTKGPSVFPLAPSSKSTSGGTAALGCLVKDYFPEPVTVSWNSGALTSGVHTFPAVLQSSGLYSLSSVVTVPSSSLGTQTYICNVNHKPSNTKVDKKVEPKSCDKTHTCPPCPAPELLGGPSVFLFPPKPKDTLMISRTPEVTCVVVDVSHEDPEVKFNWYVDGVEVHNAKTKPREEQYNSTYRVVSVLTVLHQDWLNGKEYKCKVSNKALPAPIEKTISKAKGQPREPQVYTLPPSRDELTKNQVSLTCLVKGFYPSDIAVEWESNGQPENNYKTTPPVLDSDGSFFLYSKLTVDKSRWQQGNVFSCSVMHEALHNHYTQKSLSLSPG
light: B10 light with A85E, T87D
notes: IgG1 Mab format; chimeric light chain without stabilizing substitutions; also called chimera
B13: H3 designed Vlambda-Ckappa chimeric Mab, design 34 (E83I_D85T_T105E_V106I) (antibody, human IgG1, kappa, name in Kabat numbering)
heavy: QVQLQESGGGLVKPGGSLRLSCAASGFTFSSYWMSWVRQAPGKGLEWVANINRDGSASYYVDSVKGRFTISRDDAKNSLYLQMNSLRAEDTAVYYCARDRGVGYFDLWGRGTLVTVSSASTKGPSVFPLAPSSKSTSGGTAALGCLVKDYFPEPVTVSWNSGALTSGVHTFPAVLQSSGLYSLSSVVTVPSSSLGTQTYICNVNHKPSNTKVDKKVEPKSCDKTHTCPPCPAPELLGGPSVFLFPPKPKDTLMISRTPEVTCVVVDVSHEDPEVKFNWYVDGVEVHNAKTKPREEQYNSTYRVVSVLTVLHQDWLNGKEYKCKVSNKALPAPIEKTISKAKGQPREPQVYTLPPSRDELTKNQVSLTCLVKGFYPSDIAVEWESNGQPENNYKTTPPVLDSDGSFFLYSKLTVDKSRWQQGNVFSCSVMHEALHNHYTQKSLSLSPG
light: B10 light with A85I, T109E, V110I
notes: IgG1 Mab format
B14: H3 designed Vlambda-Ckappa chimeric Mab, design 32 (E83I_D85T) (antibody, human IgG1, kappa, name in Kabat numbering)
heavy: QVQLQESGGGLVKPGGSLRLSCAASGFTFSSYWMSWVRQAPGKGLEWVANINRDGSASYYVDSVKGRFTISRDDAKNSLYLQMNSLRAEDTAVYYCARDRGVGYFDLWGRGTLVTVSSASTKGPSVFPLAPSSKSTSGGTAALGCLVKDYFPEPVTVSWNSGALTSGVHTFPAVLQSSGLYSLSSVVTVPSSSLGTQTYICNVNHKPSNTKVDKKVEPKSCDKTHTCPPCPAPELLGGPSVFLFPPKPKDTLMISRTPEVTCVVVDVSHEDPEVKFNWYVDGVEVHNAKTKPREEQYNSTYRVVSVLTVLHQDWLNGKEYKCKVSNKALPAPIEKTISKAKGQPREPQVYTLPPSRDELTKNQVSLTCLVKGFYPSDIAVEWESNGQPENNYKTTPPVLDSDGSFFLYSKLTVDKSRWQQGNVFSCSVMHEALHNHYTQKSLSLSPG
light: B10 light with A85I
notes: IgG1 Mab format
B15: H3 designed Vlambda-Ckappa chimeric Mab, design 18 (E83F_D85T_T105E) (antibody, human IgG1, kappa, name in Kabat numbering, V domains shown)
VH: QVQLQESGGGLVKPGGSLRLSCAASGFTFSSYWMSWVRQAPGKGLEWVANINRDGSASYYVDSVKGRFTISRDDAKNSLYLQMNSLRAEDTAVYYCARDRGVGYFDLWGRGTLVTVSS
VL: QSALTQPASVSGSPGQSITISCTGTSSDVGGYNFVSWYQQHPGKAPKLMIYDVSDRPSGVSDRFSGSKSGNTASLIISGLQADDFATYYCSSYGSSSTHVIFGGGTKVEVLR
notes: IgG1 Mab format
B16: H3 designed Vlambda-Ckappa chimeric Mab, design 29 (E83V_D85T_T105E_V106I) (antibody, human IgG1, kappa, name in Kabat numbering)
heavy: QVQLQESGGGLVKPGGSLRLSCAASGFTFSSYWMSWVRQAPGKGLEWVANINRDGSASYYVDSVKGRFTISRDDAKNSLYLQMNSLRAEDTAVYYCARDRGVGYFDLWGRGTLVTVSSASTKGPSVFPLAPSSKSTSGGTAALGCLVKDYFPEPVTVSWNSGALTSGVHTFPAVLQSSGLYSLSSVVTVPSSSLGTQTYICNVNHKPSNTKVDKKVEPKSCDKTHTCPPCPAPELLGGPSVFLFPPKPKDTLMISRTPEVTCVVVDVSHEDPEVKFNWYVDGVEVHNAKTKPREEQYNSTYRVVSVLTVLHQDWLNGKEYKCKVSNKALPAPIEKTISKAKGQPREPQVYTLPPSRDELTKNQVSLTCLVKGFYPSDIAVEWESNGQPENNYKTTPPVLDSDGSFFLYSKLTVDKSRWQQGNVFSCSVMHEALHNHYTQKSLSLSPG
light: B10 light with A85V, T109E, V110I
notes: IgG1 Mab format
B17: H3 designed Vlambda-Ckappa chimeric Mab, design 39 (E83A_D85T_T105E_V106I) (antibody, human IgG1, kappa, name in Kabat numbering)
heavy: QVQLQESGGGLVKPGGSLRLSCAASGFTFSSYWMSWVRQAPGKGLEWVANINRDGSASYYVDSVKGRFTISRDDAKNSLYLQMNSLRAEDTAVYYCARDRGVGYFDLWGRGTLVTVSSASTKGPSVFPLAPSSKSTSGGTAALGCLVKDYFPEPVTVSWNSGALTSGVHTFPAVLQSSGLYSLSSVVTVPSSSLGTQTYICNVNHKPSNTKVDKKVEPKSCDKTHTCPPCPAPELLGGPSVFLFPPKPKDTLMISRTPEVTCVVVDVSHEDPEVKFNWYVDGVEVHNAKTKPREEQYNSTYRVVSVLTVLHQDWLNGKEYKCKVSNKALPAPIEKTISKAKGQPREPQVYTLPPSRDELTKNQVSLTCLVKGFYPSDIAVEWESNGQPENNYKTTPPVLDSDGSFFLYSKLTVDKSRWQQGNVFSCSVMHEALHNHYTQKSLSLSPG
light: B10 light with T109E, V110I
notes: IgG1 Mab format
B18: CAT-2200 designed Vlambda-Ckappa chimeric Mab, design 37 (E83A_D85T) (antibody, human IgG1, kappa)
heavy: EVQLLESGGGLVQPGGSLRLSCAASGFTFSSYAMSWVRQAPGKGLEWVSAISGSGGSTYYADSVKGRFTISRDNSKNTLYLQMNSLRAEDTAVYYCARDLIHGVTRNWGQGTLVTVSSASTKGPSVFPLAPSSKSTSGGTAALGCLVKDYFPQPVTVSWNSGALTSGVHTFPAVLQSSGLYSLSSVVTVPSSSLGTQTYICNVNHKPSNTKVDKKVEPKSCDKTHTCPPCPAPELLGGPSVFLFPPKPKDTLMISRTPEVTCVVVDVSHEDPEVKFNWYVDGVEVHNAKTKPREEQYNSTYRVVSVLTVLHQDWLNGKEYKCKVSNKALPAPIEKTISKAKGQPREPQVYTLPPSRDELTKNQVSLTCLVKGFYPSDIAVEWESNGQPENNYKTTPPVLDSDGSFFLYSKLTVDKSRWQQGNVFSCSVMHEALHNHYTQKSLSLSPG
light: NFMLTQPHSVSESPGKTVTISCTRSSGSLANYYVQWYQQRPGSSPTIVIFANNQRPSGVPDRFSGSIDSSSNSASLTISGLKTEDAATYYCQTYDPYSVVFGGGTKLTVLRTVAAPSVFIFPPSDEQLKSGTASVVCLLNNFYPREAKVQWKVDNALQSGNSQESVTEQDSKDSTYSLSSTLTLSKADYEKHKVYACEVTHQGLSSPVTKSFNRGEC
notes: IgG1 Mab format
B19: CAT-2200 designed Vlambda-Ckappa chimeric Mab, design 29 (E83V_D85T_T105E_V106I) (antibody, human IgG1, kappa)
heavy: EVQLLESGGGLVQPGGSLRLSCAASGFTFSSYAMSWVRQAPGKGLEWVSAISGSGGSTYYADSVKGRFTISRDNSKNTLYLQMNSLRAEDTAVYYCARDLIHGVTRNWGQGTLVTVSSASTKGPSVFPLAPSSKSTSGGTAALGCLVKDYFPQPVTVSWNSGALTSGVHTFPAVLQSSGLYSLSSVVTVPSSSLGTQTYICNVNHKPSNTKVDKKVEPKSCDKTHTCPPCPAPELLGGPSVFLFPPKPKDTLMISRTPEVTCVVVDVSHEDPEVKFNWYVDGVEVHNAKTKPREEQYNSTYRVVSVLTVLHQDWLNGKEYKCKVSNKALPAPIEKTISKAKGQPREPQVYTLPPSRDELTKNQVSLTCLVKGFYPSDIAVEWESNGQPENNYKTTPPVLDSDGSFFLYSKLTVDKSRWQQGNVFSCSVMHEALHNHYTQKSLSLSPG
light: B18 light with A86V, T108E, V109I
notes: IgG1 Mab format

Key:
human recombinant FcRn = target: T1, human recombinant FcRn (human, UniProt P55899 24-297; P61769 21-119, limits assumed); assay: SPR (ProteOn), FcRn immobilized, Mab analyte, pH 5.8
T1 construct: also called neonatal receptor
T1 sequence (P55899 24-297 limits assumed, chain 1 of 2): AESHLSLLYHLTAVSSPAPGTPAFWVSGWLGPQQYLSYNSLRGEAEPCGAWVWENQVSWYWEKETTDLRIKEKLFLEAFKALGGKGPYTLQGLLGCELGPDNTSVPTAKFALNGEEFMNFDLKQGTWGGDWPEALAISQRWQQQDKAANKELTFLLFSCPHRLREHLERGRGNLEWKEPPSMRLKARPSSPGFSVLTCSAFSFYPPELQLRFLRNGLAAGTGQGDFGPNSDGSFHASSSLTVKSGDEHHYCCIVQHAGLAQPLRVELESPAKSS
T1 sequence (P61769 21-119 limits assumed, chain 2 of 2): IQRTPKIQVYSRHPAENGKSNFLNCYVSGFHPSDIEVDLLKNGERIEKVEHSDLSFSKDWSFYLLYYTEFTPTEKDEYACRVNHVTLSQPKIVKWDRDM
Description: FcRn affinity determination was carried out as follows. FcRn surface was generated using a GLC sensorchip activated by a 1:10 dilution of the standard BioRad sNHS/EDC solutions injected for 140s at 100 μL/min in the ligand (vertical) direction. Immediately after the activation, 10 microg/mL solution of FcRn in 10 mM NaOAc pH 4.5 was injected in the ligand (vertical) direction at a flow rate of 25 microL/min for 120s until approximately 2000 resonance units (RUs) were immobilized. Remaining active groups were quenched by a 140s injection of 1M ethanolamine at 30 μL/min also in the ligand direction. The running buffer used on the FcRn surface was PBST pH 5.8. The screening of the Mabs for binding to FcRn was performed by injection of purified Mabs in the analyte (horizontal) direction. Firstly, two buffer injections for 30s at 100 microL/min in the analyte (horizontal) direction were used to stabilize the baseline. Five concentrations of a three-fold dilution series of each Mab starting at 100 nM with a blank buffer control were simultaneously injected at 50 microL/min for 120 s with a 10 minute dissociation phase, resulting in a set of binding sensorgrams with a buffer reference. […] Sensorgrams were aligned and double-referenced using the buffer blank injection and interspots, and the resulting sensorgrams were analyzed using ProteOn Manager software v3.1. The double-referenced sensorgrams were fit to the Langmuir binding model.

recombinant human HER3 [1] = target: T2, recombinant human HER3 (human, UniProt P21860 20-643); assay: SPR (ProteOn), Mab captured via anti-human Fc, HER3 analyte
T2 construct: Bought reagent
Description: HER3 affinity determination in Mabs was carried out as follows. The screening of Mabs for binding to HER3 antigen occurred in two steps: an indirect capture of Mabs onto the anti-human Fc-specific polyclonal antibody surface, followed by the injection of five concentrations of HER3. The anti-human Fc surface was prepared on a GLC sensorchip by amine coupling. GLC sensorchip surface was activated by a 1:10 dilution of the standard BioRad sNHS/EDC solutions injected for 140s at 100 pt/min in the analyte (horizontal) direction. Immediately after the activation, 25 microg/mL solution of anti-human Fc in 10 mM NaOAc pH 4.5 was injected in the ligand (vertical) direction at a flow rate of 25 microL/min for 240s until approximately 3000 resonance units (RUs) were immobilized. Remaining active groups were quenched by a 140s injection of 1M ethanolamine at 100 μL/min also in the analyte direction. Mabs for analysis were indirectly captured onto the anti-Fc surface by injecting 20 microg/mL solutions in the ligand (vertical) direction at a flow rate of 25 microL/min for 240s. HER3 was subsequently injected in the analyte (horizontal) direction. Firstly, two buffer injections for 30s at 100 microL/min in the analyte (horizontal) direction were used to stabilize the baseline. […] Sensorgrams were aligned and double-referenced using the buffer blank injection and interspots, and the resulting sensorgrams were analyzed using ProteOn Manager software v3.1. The double-referenced sensorgrams were fit to the Langmuir binding model.

[2] = target: human recombinant FcgammaR receptor CD16aV (human, UniProt P08637 17-208, limits assumed); assay: SPR (ProteOn), Mab captured via anti-human Fc, FcgammaR analyte
human recombinant FcgammaR receptor CD16aV, sequence (P08637 17-208 F176V limits assumed): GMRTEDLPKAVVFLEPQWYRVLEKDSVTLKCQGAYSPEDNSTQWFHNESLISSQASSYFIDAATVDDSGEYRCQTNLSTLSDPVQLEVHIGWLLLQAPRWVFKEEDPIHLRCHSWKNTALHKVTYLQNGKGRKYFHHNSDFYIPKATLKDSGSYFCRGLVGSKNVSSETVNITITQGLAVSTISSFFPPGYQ
Description: (§1) Goat polyclonal anti-human Fc antibody was purchased from Jackson Immuno Research Laboratories Inc. (West Grove, Pa.). […] Human recombinant FcγR receptors: CD16aV, CD32bF, CD32aR, and CD32aH were expressed as constructs containing a His10-tag at the C-terminus and purified by Ni-affinity chromatography followed by His-tag removal and SEC purification.
(§2) FcγR affinity determination was carried out as follows. The screening of Mabs for binding to various FcγR receptors occurred in two steps: an indirect capture of Mab samples onto the anti-human Fc-specific polyclonal antibody surface, followed by the injection of five concentrations of each of FcγR receptors. The anti-human Fc surface was prepared on a GLC sensorchip by amine coupling. GLC sensorchip surface was activated by a 1:10 dilution of the standard BioRad sNHS/EDC solutions injected for 140s at 100 μL/min in the analyte (horizontal) direction. Immediately after the activation, 25 microg/mL solution of anti-human Fc in 10 mM NaOAc pH 4.5 was injected in the analyte direction at a flow rate of 25 microL/min for 240s until approximately 4500 or 2500 resonance units (RUs) were immobilized. Remaining active groups were quenched by a 300s injection of 1M ethanolamine at 30 μL/min also in the analyte direction. Mabs for analysis were indirectly captured onto the anti-human Fc surface by injecting 10 microg/ml solutions in the ligand (vertical) direction at a flow rate of 25 microL/min for 240s. Each of the FcγR receptors was subsequently injected in the analyte (horizontal) direction. Firstly, two buffer injections for 30s at 100 microL/min in the analyte (horizontal) direction were used to stabilize the baseline. Five concentrations of a three-fold dilution series of each of the four FcγR receptors starting at 10 μM with a blank buffer control were then simultaneously injected at 50 microL/min for 120 s with a 3 minute dissociation phase, resulting in a set of binding sensorgrams with a buffer reference. […] Sensorgrams were aligned and double-referenced using the buffer blank injection and interspots, and the resulting sensorgrams were analyzed using ProteOn Manager software v3.1.

[3] = target: T3, human recombinant FcgammaR receptor CD32aR (human, UniProt P12318 34-217, limits assumed); assay: as above
T3 sequence (looked up): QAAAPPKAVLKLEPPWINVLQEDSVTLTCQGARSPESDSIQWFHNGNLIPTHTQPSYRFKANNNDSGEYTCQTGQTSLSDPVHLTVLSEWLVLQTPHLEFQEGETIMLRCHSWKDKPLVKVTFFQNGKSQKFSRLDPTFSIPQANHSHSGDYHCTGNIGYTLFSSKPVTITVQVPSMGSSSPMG
Description: as §1, §2

[4] = target: T4, recombinant human sFas receptor (human, UniProt P25445 17-173, limits assumed); assay: SPR (Biacore T200), Fas immobilized, Fab analyte
T4 construct: Bought reagent
T4 sequence (looked up): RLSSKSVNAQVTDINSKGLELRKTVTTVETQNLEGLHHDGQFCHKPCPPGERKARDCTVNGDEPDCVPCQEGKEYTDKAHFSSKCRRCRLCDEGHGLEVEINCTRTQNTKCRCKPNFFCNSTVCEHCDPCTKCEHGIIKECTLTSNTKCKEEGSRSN
Description: Fas affinity determination was carried out as follows. Fas was diluted in 10 mM acetate buffer pH 5.5 and directly immobilized via amine coupling onto a CMS Series S sensor chip. […] The reference flow cell was left empty (ethanolamine blocked) to use as a blank control. Fabs were injected over both the ethanolamine-blocked reference surface and the Fas surface for kinetic analysis using single cycle kinetics. […] Fas surfaces were regenerated using 2 cycles of 10 mM glycine pH 1.5 for 120 s at 30 pt/min to prepare the surfaces for the next injection cycle. At least two mock-buffer injections were performed for each analyte injection to be used for referencing. The resulting single cycle kinetics sensorgrams were analyzed using Biacore T200 BiaEvaluation software version 3.0 and fit to the 1:1 binding model.

recombinant human HER3 [5] = target: T2, recombinant human HER3; assay: SPR
recombinant human IL-17A = target: T5, recombinant human IL-17A (human, UniProt Q16552 20-155, limits assumed); assay: SPR (ProteOn), IL-17A immobilized, Mab analyte
T5 construct: Bought reagent
T5 sequence (Q16552 20-155 limits assumed): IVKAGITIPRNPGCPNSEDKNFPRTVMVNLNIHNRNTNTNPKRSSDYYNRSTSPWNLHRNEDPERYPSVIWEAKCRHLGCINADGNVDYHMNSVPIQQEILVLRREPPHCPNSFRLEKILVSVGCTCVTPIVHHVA
Description: IL-17 affinity determination was carried out as follows. The IL-17A surface was generated using a GLC sensorchip activated by a 1:10 dilution of the standard BioRad sNHS/EDC solutions injected for 140s at 100 pt/min in the ligand (vertical) direction. Immediately after the activation, 1 to 4 microg/mL solution of IL-17A in 10 mM NaOAc pH 4.5 was injected in the ligand (vertical) direction at a flow rate of 25 or 100 microL/min until approximately 75-200 resonance units (RUs) were immobilized. Remaining active groups were quenched by a 140s injection of 1M ethanolamine at 100 μL/min also in the ligand direction. […] Firstly, two buffer injections for 30s at 100 microL/min in the analyte (horizontal) direction were used to stabilize the baseline. […] Sensorgrams were aligned and double-referenced using the buffer blank injection and interspots, and the resulting sensorgrams were analyzed using ProteOn Manager software v3.1. The double-referenced sensorgrams were fit to the Langmuir binding model.

Binder | Kd (human recombinant FcRn) | Kd (recombinant human HER3 [1]) | Kd [2] | Kd [3] | Kd [4] | further results
B1 | 48.6 nM | 85 nM | 1100 nM | 3400 nM | – | –
B2 | – | – | – | – | 0.0512 nM | –
B3 | – | – | – | – | 0.0546 nM | –
B4 | – | – | – | – | 0.0484 nM | –
B5 | – | – | – | – | 0.0479 nM | –
B6 | – | – | – | – | 0.0492 nM | –
B7 | – | – | – | – | 0.0486 nM | –
B8 | – | – | – | – | 0.0449 nM | –
B9 | – | – | – | – | 0.0471 nM | –
B10 | 80.2 nM | 67 nM | 1300 nM | 3400 nM | – | –
B11 | – | 56 nM | – | – | – | –
B12 | 74.6 nM | 63 nM | 1200 nM | 4100 nM | – | fold difference of KD against the wild-type lambda Mab control (recombinant human HER3 [5]): ≤ 1.5 fold
B13 | – | 60 nM | – | – | – | –
B14 | – | 67 nM | – | – | – | –
B15 | – | 66 nM | – | – | – | –
B16 | 86.1 nM | 64 nM | 1100 nM | 4900 nM | – | –
B17 | 96.7 nM | 61 nM | 1400 nM | 3100 nM | – | –
B18 | 23.4 nM | – | 1400 nM | 2400 nM | – | Kd (recombinant human IL-17A): 0.048 nM
B19 | 27.9 nM | – | 1300 nM | 2300 nM | – | Kd (recombinant human IL-17A): 0.049 nM
